± gives the uncertainty stated by the source.
Assay: self-splicing fitness, log relative to wild type (ln ratio); higher = more splicing; Tetrahymena group I intron in knt gene, E. coli kanamycin selection, DiMSum; sequences stand for … in CUCUCU…GGAGGGAAAAGUUAUCAGGCAUGCACCUGGUAGCUAGUCUUUAAACCAAUAGAUUGCAUCGGUUUAAAAGGCAAGACCGUCAAAUUGCGGGAAAGGGGUCAACAGCCGUUCAGUACCAAGUCUCAGGGGAAACUUUGAGAUGGCCUUGCAAAGGGUAUGGUAAUAAGCUGACGGACAUGGUCCUAACCACGCAGCCAAGUCCUAAGUCAACAGAUCUUCUGUUGAUAUGGAUGCAGUUCACAGACUAAAUGUCGGUCGGGGAAGAUGUAUUCUUCUCAUAAGAUAUAGUCGGACCUCUCCUUAAUGGGAGCUAGCGGAUGAAGUGAUGCAACACUGGAGCCGCUGGGAACUAAUUUGUAUGCGAAAGUAUAUUGAUUAGUUUUGGAGUACUCGUGGUCG
In short: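 DiMSum derived fitness as the error-weighted combination of fold changes across replicates, kanamycin versus no kanamycin, normalised to wild type. E. coli BL21(DE3) held the library, which randomised all eight P1ex-region intron nucleotides within the knt kanamycin-resistance gene on pET-22b(+). Six replicate transformations grew overnight at 37°C or 30°C on LB agar with or without 25 μg/mL kanamycin, also containing 100 μg/mL carbenicillin, 50 μM IPTG and 0.2% rhamnose, and pooled colonies were amplicon-sequenced on an Illumina HiSeq 2500.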

Sequence | self-splicing fitness (ln) (30 °C) | self-splicing fitness (ln) (37 °C)
CUCAAGCAAUAUUACGGCAU | -2.66 ± 0.18 | -1.58 ± 0.24
CUCAAGCAAUAUUACGGGUG | -1.43 ± 0.059 | -1.2 ± 0.073
CUCAAGCAAUAUUACGGUGA | -2.9 ± 0.12 | -1.29 ± 0.12
CUCAAGCAAUAUUACGGUUC | -3.65 ± 0.17 | -2.74 ± 0.16
CUCAAGCAAUAUUACGUGGU | -3.18 ± 0.12 | -2.09 ± 0.12
CUCCAGCAAUAUUACGACCU | -3.4 ± 0.32 | 
CUCCAGCAAUAUUACGAGGA | -2.35 ± 0.11 | -2.99 ± 0.18
CUCCAGCAAUAUUACGCCAU | -3.28 ± 0.31 | -2.34 ± 0.25
CUCCAGCAAUAUUACGCGAC | -3.79 ± 0.2 | -2.31 ± 0.18
CUCCAGCAAUAUUACGCGAG | -2.19 ± 0.2 | -2.94 ± 0.3
CUCCAGCAAUAUUACGCGCG | -3.29 ± 0.17 | -0.928 ± 0.15
CUCCAGCAAUAUUACGCUAC | -4.08 ± 0.29 | -2.75 ± 0.23
CUCCAGCAAUAUUACGCUUG | -3.52 ± 0.19 | -2.96 ± 0.21
CUCCAGCAAUAUUACGGGAG | -3.68 ± 0.15 | -1.91 ± 0.16
CUCCAGCAAUAUUACGGUAG | -3.88 ± 0.19 | -3.24 ± 0.27
CUCCAGCAAUAUUACGGUCC | -3.11 ± 0.17 | -2.83 ± 0.38
CUCCAGCAAUAUUACGUACU | -3.3 ± 0.29 | -3.21 ± 0.28
CUCCAGCAAUAUUACGUCAG | -1.2 ± 0.067 | -0.906 ± 0.098
CUCCAGCAAUAUUACGUCUU | -4.45 ± 0.28 | -2.88 ± 0.16
CUCCAGCAAUAUUACGUGAU | -2.1 ± 0.078 | -1.59 ± 0.1
CUCCAGCAAUAUUACGUUAA | -3.9 ± 0.25 | -2.68 ± 0.36
CUCCAGCAAUAUUACGUUUA | -3.31 ± 0.27 | -2.27 ± 0.18
CUCGAGCAAUAUUACGACGG | -1.94 ± 0.15 | -0.385 ± 0.18
CUCGAGCAAUAUUACGAUGA | -2.19 ± 0.19 | -1.36 ± 0.2
CUCGAGCAAUAUUACGCCUG | -3.03 ± 0.24 | -2.58 ± 0.49

Sequence | self-splicing fitness (ln) (30 °C) | self-splicing fitness (ln) (37 °C)
CUCGAGCAAUAUUACGCGGG | -3.9 ± 0.39 | 
CUCGAGCAAUAUUACGCGUC |  | -2.79 ± 0.32
CUCGAGCAAUAUUACGCUUA | -2.27 ± 0.47 | -2.22 ± 0.34
CUCGAGCAAUAUUACGGAGA | -2.57 ± 0.36 | -1.72 ± 0.28
CUCGAGCAAUAUUACGGAUA | -2.79 ± 0.28 | -3.68 ± 0.46
CUCGAGCAAUAUUACGGCUU | -2.57 ± 0.47 | 
CUCGAGCAAUAUUACGGGUG | -2.04 ± 0.077 | -1.88 ± 0.095
CUCGAGCAAUAUUACGGUUA | -2.71 ± 0.16 | -1.58 ± 0.13
CUCGAGCAAUAUUACGUAUU | -3.51 ± 0.15 | -1.96 ± 0.14
CUCGAGCAAUAUUACGUGAC | -2.55 ± 0.17 | -1.73 ± 0.16
CUCGAGCAAUAUUACGUGCA | -2.2 ± 0.17 | -1.01 ± 0.17
CUCGAGCAAUAUUACGUGCU | -2.36 ± 0.24 | 
CUCGAGCAAUAUUACGUGGC |  | -0.934 ± 0.32
CUCGAGCAAUAUUACGUGUC |  | -2.76 ± 0.27
CUCGAGCAAUAUUACGUUCC | -3.4 ± 0.19 | -2.63 ± 0.27
CUCGAGCAAUAUUACGUUCU | -3.52 ± 0.17 | -2.8 ± 0.18
CUCGAGCAAUAUUACGUUGA | -3.86 ± 0.28 | -2.63 ± 0.38
CUCGAGCAAUAUUACGUUGG | -3.48 ± 0.18 | -3.17 ± 0.14
CUCUAGCAAUAUUACGAACA |  | -2.98 ± 0.34
CUCUAGCAAUAUUACGAGGC | -3.18 ± 0.36 | 
CUCUAGCAAUAUUACGAGGU | -3.21 ± 0.26 | -3.6 ± 0.29
CUCUAGCAAUAUUACGCCGC |  | -3.15 ± 0.43
CUCUAGCAAUAUUACGCGGC | -2.81 ± 0.3 | -2.45 ± 0.3
CUCUAGCAAUAUUACGGACA | -2.52 ± 0.47 | -2.66 ± 0.4
CUCUAGCAAUAUUACGGACG | -0.959 ± 0.14 | -0.0675 ± 0.16

Sequence | self-splicing fitness (ln) (30 °C) | self-splicing fitness (ln) (37 °C)
CUCUAGCAAUAUUACGGCAU | -4.62 ± 0.39 | -3.62 ± 0.42
CUCUAGCAAUAUUACGGGAU | -2.37 ± 0.11 | -3.45 ± 0.16
CUCUAGCAAUAUUACGGGGG | -3.07 ± 0.3 | -2.38 ± 0.26
CUCUAGCAAUAUUACGGGUA | -2.21 ± 0.14 | -1.05 ± 0.12
CUCUAGCAAUAUUACGGUUA |  | -3.24 ± 0.29
CUCUAGCAAUAUUACGUAAU | -3.59 ± 0.26 | -3.77 ± 0.46
CUCUAGCAAUAUUACGUGGC | -3.7 ± 0.22 | -2.82 ± 0.24
CUCUAGCAAUAUUACGUGUA | -3.62 ± 0.21 | -4.02 ± 0.27
CUGAAGCAAUAUUACGACAA | -0.913 ± 0.13 | 0.0189 ± 0.19
CUGAAGCAAUAUUACGACAG | -0.755 ± 0.063 | 0.511 ± 0.11
CUGAAGCAAUAUUACGAGAA | -3.29 ± 0.3 | 
CUGAAGCAAUAUUACGCAAU | -3.09 ± 0.24 | -2.67 ± 0.36
CUGAAGCAAUAUUACGCAGA | -3.67 ± 0.19 | -2.71 ± 0.21
CUGAAGCAAUAUUACGCCGC | -3.17 ± 0.35 | 
CUGAAGCAAUAUUACGCGUC | -3.62 ± 0.33 | -3.55 ± 0.35
CUGAAGCAAUAUUACGGAUA | -4.19 ± 0.22 | -1.19 ± 0.18
CUGAAGCAAUAUUACGGCUA | -3.03 ± 0.25 | -1.22 ± 0.25
CUGAAGCAAUAUUACGGUCC | -3.78 ± 0.34 | -2.38 ± 0.46
CUGAAGCAAUAUUACGGUCG | 0.651 ± 0.072 | -0.32 ± 0.082
CUGAAGCAAUAUUACGGUUU | -3.24 ± 0.22 | -2.72 ± 0.18
CUGAAGCAAUAUUACGUAGA | -4.28 ± 0.34 | -1.75 ± 0.27
CUGAAGCAAUAUUACGUAUG | -0.151 ± 0.056 | -0.154 ± 0.068
CUGAAGCAAUAUUACGUGCG | 0.0994 ± 0.061 | -0.325 ± 0.073
CUGAAGCAAUAUUACGUGGU | -3.3 ± 0.15 | -1.41 ± 0.18
CUGAAGCAAUAUUACGUGUU | -3.7 ± 0.14 | -2.13 ± 0.17

Sequence | self-splicing fitness (ln) (30 °C) | self-splicing fitness (ln) (37 °C)
CUGAAGCAAUAUUACGUUUG | -1.52 ± 0.061 | -1.23 ± 0.099
CUGCAGCAAUAUUACGAAGC | -2.78 ± 0.28 | -2.6 ± 0.28
CUGCAGCAAUAUUACGACCG | 0.161 ± 0.088 | 0.198 ± 0.12
CUGCAGCAAUAUUACGAGCC | -2.9 ± 0.31 | 
CUGCAGCAAUAUUACGAUAC | -2.99 ± 0.34 | 
CUGCAGCAAUAUUACGAUAU | -3.64 ± 0.28 | -2.41 ± 0.3
CUGCAGCAAUAUUACGAUGC | -3.13 ± 0.24 | -1.92 ± 0.43
CUGCAGCAAUAUUACGCAGA | -2.32 ± 0.31 | -2.97 ± 0.38
CUGCAGCAAUAUUACGCUAC | -4.2 ± 0.36 | -2.17 ± 0.16
CUGCAGCAAUAUUACGCUCG | -2.3 ± 0.16 | -0.671 ± 0.16
CUGCAGCAAUAUUACGGAAA | -2.27 ± 0.21 | -1.56 ± 0.38
CUGCAGCAAUAUUACGGAGU | -3.05 ± 0.14 | -1.65 ± 0.13
CUGCAGCAAUAUUACGGAUC |  | -2.38 ± 0.21
CUGCAGCAAUAUUACGGCAG | -2.63 ± 0.22 | -2.27 ± 0.2
CUGCAGCAAUAUUACGGCUC | -2.57 ± 0.22 | -2.96 ± 0.43
CUGCAGCAAUAUUACGGGCA | -3.01 ± 0.17 | -1.06 ± 0.14
CUGCAGCAAUAUUACGGGUU | -3.86 ± 0.17 | -2.74 ± 0.14
CUGCAGCAAUAUUACGUCAG | -3.61 ± 0.28 | -2.08 ± 0.21
CUGCAGCAAUAUUACGUCAU | -2.86 ± 0.14 | -2.06 ± 0.13
CUGCAGCAAUAUUACGUCCG | -0.43 ± 0.094 | 0.136 ± 0.13
CUGCAGCAAUAUUACGUCGU | -4.05 ± 0.25 | -3.44 ± 0.25
CUGCAGCAAUAUUACGUGCU | -4.44 ± 0.23 | -2.54 ± 0.19
CUGCAGCAAUAUUACGUUCU | -2.88 ± 0.21 | -1.88 ± 0.2
CUGCAGCAAUAUUACGUUUA | -2.64 ± 0.19 | -1.21 ± 0.19
CUGGAGCAAUAUUACGAAUA | -3.07 ± 0.4 | -2.15 ± 0.47

From the supplement of paper PMC7877785
